How the values were obtained:
mouse A1 ΔC20 (mouse) = mouse A1 ΔC20 (mouse) (UniProt Q07440); assay: Biacore solution competition against immobilised mouse wtBimBH3
[1] = molecular target: mouse Mcl-1 ΔN151 ΔC23 (mouse) (UniProt P97287); assay: as above
[2] = molecular target: m ^wtBimBH3 (83-108) (mouse); assay: SPR (Biacore 3000), protein over immobilised m wtBimBH3
[3] = molecular target: mouse Mcl-1 ΔN151 ΔC23 (mouse) (UniProt P97287); assay: from the solution competition affinities

mouse Mcl-1 ΔN151 ΔC23 (mouse), sequence (P97287 other isoform, or with tags, fused parts or gaps mutant): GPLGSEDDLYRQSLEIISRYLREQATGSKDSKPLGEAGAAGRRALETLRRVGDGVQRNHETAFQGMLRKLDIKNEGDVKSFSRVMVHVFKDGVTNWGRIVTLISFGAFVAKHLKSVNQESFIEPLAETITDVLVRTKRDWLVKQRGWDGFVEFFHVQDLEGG
m ^wtBimBH3 (83-108) (mouse), sequence (peptide, as listed by the source limits assumed): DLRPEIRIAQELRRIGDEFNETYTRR
mouse A1 ΔC20 (mouse), sequence (Q07440 other isoform, or with tags, fused parts or gaps mutant): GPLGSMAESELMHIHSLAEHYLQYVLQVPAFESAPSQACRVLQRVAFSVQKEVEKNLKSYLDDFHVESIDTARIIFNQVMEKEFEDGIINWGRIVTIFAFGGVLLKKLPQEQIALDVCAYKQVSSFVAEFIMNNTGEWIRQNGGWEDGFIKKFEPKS

Hrk (26-51) BH3 peptide, human
IC50 (mouse A1 ΔC20 (mouse)): 46 nM | IC50 [1]: 370 nM

mouse Mcl-1 ΔN151 ΔC23 (from UniProt P97287 152-308)
Kd [2]: 0.2 nM | koff [2]: 0.00026 s⁻¹ | kon [2]: 1.3e+06 M⁻¹ s⁻¹

Bik (51-75) BH3 peptide, human
fold weaker binding than to Bcl-xL [3]: 40 fold | IC50 (mouse A1 ΔC20 (mouse)): 58 nM | IC50 [1]: 1700 nM

Puma (130-155) BH3 peptide, human
IC50 (mouse A1 ΔC20 (mouse)): 5.7 nM | IC50 [1]: 5 nM

mouse A1 ΔC20 (from UniProt Q07440 1-152)
Kd [2]: 0.5 nM | koff [2]: 0.00014 s⁻¹ | kon [2]: 290000 M⁻¹ s⁻¹
